Tests used:
nesfatin-1 = assay: Western blotting of nesfatin-1 in hypothalamus after antisense RNA administration (densitometry); format: in vivo; conditions: rat hypothalamus, day 12; control group 14.3±1.2 AU
Description: On day 12 after the start of administration, the individuals in each group were sacrificed, and the hypothalamus in the brain was removed. Using the sample extracted, the expression of nesfatin was confirmed by Western blotting with nesfatin-1 Ab. Western blotting was carried out in a manner similar to those described in Working Examples 13 and 12. The concentration of bands stained in Western blotting was determined by densitometry.

Wistar rats [1] = assay: Continuous intraventricular administration of nesfatin antisense RNA, food intake and body weight; format: in vivo, rat
Description: As the antisense RNA against nesfatin-1 gene, was used a morpholino RNA which sandwiches a translational start site, as follows.
The administration of nesfatin antisense RNA was carried out into the ventricle by an osmotic pump for 12 consecutive days using an osmotic pump. Among 8 week-old male Wistar rats (purchased from Nippon SLC), those individuals weighing 200-250 g were selected and used. The rats received intraperitoneal administration of 40 mg/kg body weight of pentobarbital sodium for anesthesia. After the hair was removed from the head, they were fixed in a brain stereotaxic apparatus (David Kopf Instruments, Model 962) and the scalp was incised and a 23G needle (guide cannula) was implanted so that the tip reaches the third ventricle (2.5 mm behind the bregma, 9.5 mm from the surface). One week after implanting the guide cannula, the animals were subjected to the experiment. The osmotic pump used was Alzet's Model 2002 that was primed in sterilized physiological saline from the day before use. Nesfatin antisense RNA (antisense administration group) dissolved in physiological saline that was filter-sterilized with 0.22 μm Millex GV filter, or missence RNA (ATcGTgCTCCACgTCATCTaCAcAG) sterilized in the same manner that dissolved in sterilized physiological saline (control group) were injected into the osmotic pump immediately before use. […] The measurement of the amount of food intake started from the day after the cannula and the osmotic pump were implanted, and the weight of the residual food was measured at 9 a.m. every day and, by determining the difference from the weight of the food on the previous day, the amount of food intake of the day (24 hours) was calculated. From day 6 after the start of administration, body weight was measured at the time of measuring the amount of food intake, and changes in body weight were also recorded.

Wistar rats [2] = assay: Administration of nesfatin-1, nesfatin-2, nesfatin-3, nesfatin-2/3 into the third ventricle, amount of food intake; format: in vivo, rat; conditions: given alone into the third ventricle (nesfatin-1 5 pmol; leptin 1 μg); vs saline control
Description: Samples used for intracerebral administration were PBS alone (vehicle group), or nesfatin-1, nesfatin-2, nesfatin-3 or nesfatin-2/3 prepared in Working Example 10 each dissolved in PBS, and 25 pmol was administered per individual into the third ventricle immediately before the dark period. Rats used were Wistar rats (purchased from Nippon SLC) and were housed as in Working Example 6, and among 8-9 week-old male Wistar rats, those individuals weighing 200-250 g were selected and used (N=5). The technique of intraventricular administration and the measurement of the amount of food intake in rats were carried out in a method similar to those in Working Example 6. In the measurement of the amount of food intake, the reduced amount of food at 1 hour after administration (0-1 hr) and 2 hours after administration (1-3 hrs) was determined as food intake.
In the same condition above, 1, 5 or 25 pmol of nesfatin-1 as a sample was administered per rat individual into the third ventricle immediately before the dark period. In this experiment, the amount of food intake was determined at 1 hour after administration (0-1 hr).
The experimental condition was similar to that in Working Example 12, and 5 pmol of nesfatin-1 was administered into the third ventricle of the rat brain immediately before the start of the dark period, the amount decreased of the food (the amount of food intake) during 1 hour immediately after administration (0-1 hr), during 2 hours from 1 hour after the administration (1-3 hr), during 3 hours from 3 hours after the administration (3-6 hr), and during 6 hours from 6 hours after the administration (6-12 hr) was measured as the amount of food intake. As the control group, the amount of food intake by individuals that received physiological saline alone was measured.
The experimental condition was similar to that in Working Example 12, and for a group that received 5 pmol of nesfatin-1 alone into the third ventricle of the rat brain immediately before the start of the dark period and a group that received 5 pmol of nesfatin-1 and 8 μg of anti-nesfatin-1 antibody (nesfatin-1 IgG), the amount of food intake for 1 hour after administration was measured and compared to that for the control group (physiological saline alone was administered). Also, for a group that received only leptin (Rat leptin: R & D Systems, 598-LP-01M) (1 μg) which is known to have an activity of suppressing food intake by intraventricular administration and a group that received leptin and anti-nesfatin-1 antibody, its effect on food intake was also studied.

Wistar rats [3] = assay: Administration of recombinant nesfatin into the third ventricle, amount of food intake; format: in vivo, rat; conditions: for control activity of food intake: 1-3 hour and 3-6 hours
Description: Rats used were Wistar rats (purchased from Nippon SLC), and the animals were housed under a cycle of 12 hours of the light period from 6 a.m. to 6 p.m. and 12 hours of the dark period from 6 p.m. to 6 a.m. the next morning and fed a powder chew (Nippon Clea, CE-2), and kept at 22° C., and housing was continued under a similar condition during the experiment. For the experiment, among 8-9 week-old male Wistar rats, those individuals weighing 200-250 g were used. For administration, 5 μl of saline (control) or recombinant nesfatin prepared in Working Example 5 dissolved to 0.2 pmol, 0.6 pmol and 3.0 pmol in 5 μl of PBS was administered per individual (N=5 for each group). The rats received intraperitoneal administration of 40 mg/kg body weight of pentobarbital sodium for anesthesia. After the hair was removed from the head, they were fixed in a brain stereotaxic apparatus (David Kopf Instruments, Model 962) and the scalp was incised and a 23G needle (guide cannula) was implanted so as to reach the third ventricle (2.5 mm behind the bregma, 9.5 mm from the surface). One week after implanting the guide cannula, the animals were subjected to the experiment. After recovering from the surgery, a 29G cannula for injection was inserted into the guide cannula under no anesthesia, and 5 μl of PBS or the matured mouse nesfatin solution in PBS was administered at a rate of 1 μl/second. After fixing the cannula as it was for 2-3 minutes after the administration, the cannula was extracted, and the animals were returned to the individual cages. One, three, and six hours thereafter, the weight of the food was determined to record the amount of food intake, which was used as an index of feeding behavior. For the test of significant difference, analysis of variance was used.
The PCR product obtained was subjected to 1% agarose gel electrophoresis to excise an amplified band, which was purified with QIAEX-II kit (QIAGEN). The amplified DNA excised was cleaved with restriction enzymes SpeI and NotI, and ligated to pET41a(+) plasmid vector (Novagen) cleaved with restriction enzymes SpeI and NotI, using the Quick DNA ligase kit (New England Biolabs). From the cloned DNA, a clone, which has no errors in mutant portions introduced after analyzing DNA sequences in a similar manner to Working Example 5 and other nucleotide sequences, can be selected to obtain a vector for expressing the KR-AA mutant. The expression and purification were carried out in a similar manner to Working Example 5. The amino acid sequence of the KR-AA mutant obtained is set forth in SEQ ID NO: 61. Wt (normal nesfatin), which was prepared in Working Example 5, was used. 5 pmol each of the KR-AA mutant (Mut) peptide and the normal nesfatin (Wt) peptide were administered to the third ventricle of rats in a similar manner to Working Example 6. One, three, six and 12 hours thereafter, the weight of the food was determined to record the amount of food intake, which was used as an index of feeding behavior.
Also, in the same manner as in Working Example 6, after 5 pmol of nesfatin was administered into the rat ventricle, the amount of food intake was determined during 0-1 hour/1-3 hours/3-6 hours after the administration. The control group used was the one that only received physiological saline (0 pmol). For testing of significant difference, analysis of variance was used.

[4] = 5 pmol intraventricular, 0-1 hour

Molecule	expression of nesfatin-1, band intensity by densitometry (nesfatin-1) [AU]	amount of food intake during 24 hours (Wistar rats [1]; 40 μg, osmotic pump, third ventricle, 12 days, from day 1, vs missense RNA control)	body weight (Wistar rats [1]; day 6 after the start of administration, vs missense RNA control)	body weight (Wistar rats [1]; day 7 and after, P<0.05 vs missense RNA control)	amount of food intake for 1 hour after administration (Wistar rats [2])	amount of food intake (Wistar rats [3]; 4 pmol or 20 pmol into the brain ventricle, 0-1 hour, p<0.01 vs 0 pmol)	amount of food intake (Wistar rats [3]; 5 pmol intraventricular, 0-1 hour (p<0.01), 1-3 hours (p<0.05) and 3-6 hours (p<0.001))	control activity of food intake (Wistar rats [3]; [4])	amount of food intake (Wistar rats [3]; 5 pmol intraventricular, 6-12 hours)	amount of food intake (Wistar rats [3]; 20 pmol into the third ventricle, any of 0-1 hour/1-3 hours/3-6 hours, P<0.01 vs control)	amount of food intake (Wistar rats [3]; 1, 4 and 20 pmol into the third ventricle, 0-1, 1-3 and 3-6 hours, vs saline)
5-ATGGTCCTCCACCTCATCTTCAGAG-3 (all phosphorodiamidate morpholino (PMO)) [nesfatin antisense RNA]	8.5±0.7	an increase in the amount of food intake	no difference	significant increase in body weight	–	–	–	–	–	–	–
recombinant nesfatin: recombinant matured mouse nesfatin (SEQ ID NO: 26) expressed in E. coli as GST fusion and cleaved with thrombin (protein, Chemically-synthesized nesfatin mutant protein) GSPIDVDKTKVHNTEPVENARIEPPDTGLYYDEYLKQVIEVLETDPHFREKLQKADIEEIRSGRLSQELDLVSHKVRTRLDELKRQEVGRLRMLIKAKLDALQDTGMNHHLLLKQFEHLNHQNPNTFESRDLDMLIKAATADLEQYDRTRHEEFKKYEMMKEHERREYLKTLSEEKRKEEESKFEEMKRKHEDHPKVNHPGSKDQLKEVWEETDGLDPNDFDPKTFFKLHDVNNDGFLDEQELEALFTRELEKVYNPQNAEDDMIEMEEERLRMREHVMSEIDNNKDRLVTLEEFLRATEKKEFLEPDSWETLDQQQLFTEDELKEYESIIAIQENELKKRAEELQKQKEDLQRQHDHLEAQKQEYHQAVQHLEQKKLQQGIAPSGPAGELKFEPHT	–	–	–	–	significantly decreased	significantly reduced	significant reduction in the amount of food intake	a significant control activity of food intake was observed	no difference	significant activity of suppressing food intake	reduction in the amount of food intake was noted in a dose dependent manner
Mut: nesfatin mutant in which Lys-Arg at amino acid numbers 84 and 85 is replaced with Ala-Ala (SEQ ID NO: 61) (protein, Chemically-synthesized KR-AA mutant polypeptide) GSPIDVDKTKVHNTEPVENARIEPPDTGLYYDEYLKQVIEVLETDPHFREKLQKADIEEIRSGRLSQELDLVSHKVRTRLDELAAQEVGRLRMLIKAKLDALQDTGMNHHLLLKQFEHLNHQNPNTFESRDLDMLIKAATADLEQYDRTRHEEFKKYEMMKEHERREYLKTLSEEKRKEEESKFEEMKRKHEDHPKVNHPGSKDQLKEVWEETDGLDPNDFDPKTFFKLHDVNNDGFLDEQELEALFTRELEKVYNPQNAEDDMIEMEEERLRMREHVMSEIDNNKDRLVTLEEFLRATEKKEFLEPDSWETLDQQQLFTEDELKEYESIIAIQENELKKRAEELQKQKEDLQRQHDHLEAQKQEYHQAVQHLEQKKLQQGIAPSGPAGELKFEPHT	–	–	–	–	–	–	–	no control activity of food intake was observed	–	–	–

Reference: patent US7795390B2, “Biological substance nesfatin and its related substances and uses thereof” (Teijin Pharma Limited, priority 2005, dated 2010)
